Test results published in patent publication US20220296726A1 (Bicycle, published 2022).
Positions count from the first letter of the chain named. *1 amine or outer side, *2 acyl side, *3 side chain or, on linkers, in order; H or OH if unused. Bridges are numbered along the chain shown (N, C = ends). Where no end group is shown, it is not given here. [ ]: non-standard residue; d: D form. TATA = O=C(CC[*:1])N1CN(C(=O)CC[*:2])CN(C(=O)CC[*:3])C1; Phe(2-Me) = Cc1ccccc1C[C@H](N)C(=O)O

T1: Human TREM2 extracellular domain (ECD), residues 19-131, C-terminally biotinylated, deglycosylated (human, UniProt Q9NZC2 19-131, C-terminally biotinylated; deglycosylated)
T1 construct: range 19-131; loaded on Superstreptavidin biosensors; also called triggering receptor expressed on myeloid cells 2; Human BLI (deglycosylated)
T1 sequence (looked up): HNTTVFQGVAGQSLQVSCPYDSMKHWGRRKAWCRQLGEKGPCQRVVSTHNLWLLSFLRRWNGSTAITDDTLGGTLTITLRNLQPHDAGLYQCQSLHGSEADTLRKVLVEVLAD

T2: Cyno TREM2 (Cyno, UniProt A0A2K5UY34 49-161)
T2 construct: range 19-131; also called Cyno BLI
T2 sequence: T1 sequence (looked up) with A10E, W60R, L89F

T3: Human TREM2 extracellular domain (ECD), residues 19-131, C-terminally biotinylated, glycosylated (human, UniProt Q9NZC2 19-131, C-terminally biotinylated; glycosylated)
T3 construct: range 19-131; loaded on Superstreptavidin biosensors; also called Human BLI glycosylated
T3 sequence (looked up): T1 sequence (looked up)

T4: TREM2 on human iPSC macrophages (human, UniProt Q9NZC2 19-230)
T4 sequence (looked up): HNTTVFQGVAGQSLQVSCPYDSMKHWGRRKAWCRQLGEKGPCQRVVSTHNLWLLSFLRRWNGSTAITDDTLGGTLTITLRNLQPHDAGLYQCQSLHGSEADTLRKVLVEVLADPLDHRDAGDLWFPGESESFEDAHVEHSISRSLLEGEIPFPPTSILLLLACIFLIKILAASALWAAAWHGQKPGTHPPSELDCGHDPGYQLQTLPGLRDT

B1: BCY16054 (peptide)
peptide: ACSEYCFWPFYHCA
modifications: linker 2-6-13 via TATA
B2: BCY20054 (peptide)
peptide: CSEYCXWPFYHC
modifications: N-terminal acetyl (Ac); CiSEYCii[1Nal]WPFYHCiii; Ci, Cii, Ciii on TATA scaffold
B3: BCY20053 (peptide)
peptide: CSEYCXWPFYHC
modifications: N-terminal acetyl (Ac); CiSEYCii[4FPhe]WPFYHCiii; Ci, Cii, Ciii on TATA scaffold
B4: BCY20052 (peptide)
peptide: CSEYCXWPFYHC
modifications: N-terminal acetyl (Ac); CiSEYCii[3FPhe]WPFYHCiii; Ci, Cii, Ciii on TATA scaffold
B5: BCY20059 (peptide)
peptide: CSEYCFXPFYHC
modifications: N-terminal acetyl (Ac); CiSEYCiiF[Trp(Me)]PFYHCiii; Ci, Cii, Ciii on TATA scaffold
B6: BCY20060 (peptide)
peptide: CSEYCFXPFYHC
modifications: N-terminal acetyl (Ac); CiSEYCiiF[6MeTrp]PFYHCiii; Ci, Cii, Ciii on TATA scaffold
B7: BCY20063 (peptide)
peptide: Ac-CSEYCF[Phe(2-Me)]PFYHC
modifications: linker 1-5-12 via TATA
B8: BCY20066 (peptide)
peptide: CSEYCFWXFYHC
modifications: N-terminal acetyl (Ac); CiSEYCiiFW[44DFP]FYHCiii; Ci, Cii, Ciii on TATA scaffold
B9: BCY20071 (peptide)
peptide: CSEYCFWPXYHC
modifications: N-terminal acetyl (Ac); CiSEYCiiFWP[2MePhe]YHCiii; Ci, Cii, Ciii on TATA scaffold
B10: BCY20073 (peptide)
peptide: CSEYCFWPXYHC
modifications: N-terminal acetyl (Ac); CiSEYCiiFWP[4FPhe]YHCiii; Ci, Cii, Ciii on TATA scaffold
B11: BCY20075 (peptide)
peptide: CSEYCFWPXYHC
modifications: N-terminal acetyl (Ac); CiSEYCiiFWP[44BPA]YHCiii; Ci, Cii, Ciii on TATA scaffold

Target: T1, Human TREM2 extracellular domain (ECD), …
Assay: Bio-layer interferometry (Octet), direct binding: biotinylated human TREM2 ECD loaded on Superstreptavidin biosensors, peptide in solution at 0.195 to 12.5 µM (7 traces)
Method: (§1) Bio-layer interferometry was performed on an Octet RED384® system (Sartorius) at 25° C. in a buffer containing 50 mM HEPES (pH 7.5), 150 mM NaCl and 0.1% Tween. […] Reference wells containing no bicycle peptides and reference sensors loaded with an unrelated protein (His-tagged MLLT3a) were subjected to the same assay protocol and double reference subtraction was used for processing to account for non-specific binding. Traces were analysed using Octet Software (Version 11.0). Association and dissociation curves were globally fit and the response at equilibrium (Req) plotted against concentration to obtain steady-state KD values.

Binder | Kd [µM]
B1 | 0.68

Target: T2, Cyno TREM2
Assay: BLI steady state, cyno TREM2 on sensor
Method: as §1

Binder | Kd [µM]
B1 | 3.3

Target: T3, Human TREM2 extracellular domain (ECD), …
Assay: BLI steady state, glycosylated human TREM2 ECD on sensor
Method: as §1

Binder | Kd [µM]
B2 | 1.83
B3 | 1.71
B4 | 1.25
B5 | 1.5
B6 | 1.11
B7 | 1.58
B8 | 0.98
B9 | 0.78
B10 | 2.13
B11 | 1.51

Target: T1, Human TREM2 extracellular domain (ECD), …
Assay: BLI steady state, deglycosylated human TREM2 ECD on sensor
Method: as §1

Binder | Kd [µM]
B1 | 0.7
B2 | 2.54
B3 | 2.01
B4 | 4.88
B5 | 1.81
B6 | 1.39
B7 | 1.3
B8 | 1.86
B9 | 0.91
B10 | 2.32
B11 | 2.4

Target: T4, TREM2 on human iPSC macrophages
Assay: cell-based or functional assay

Binder | pSYK (µM)
B1 | 10.7
